Molecular target: SARS-CoV-2 spike protein receptor binding domain (SARS-CoV-2, UniProt P0DTC2)
Experiment: cryo-EM structure

Binder	binding result
REGN10985 Fab (Fab, V domains shown) VH: EVQLVESGGGLVQPGRSLRLSCAASGFTFDDYAMHWVRQAPGKGLEWVSGISWNRGSIGYADSVKGRFTISRDNAKNSLYLQMSSLRAEDTALYYCAKDGERWDSVVVPSARNGMDVWGQGTTVTVSS VL: QSVLTQPPSVSGAPGQRVTISCTGSSSNIGAGYDVHWYQQLPGTAPKLLIYGNSNRPSGVPDRFSGSKSGTSASLAITGLQAEDEADYYCQSYDSSLSGSYVFGTGTKVTVL	binds
REGN10989 Fab (Fab, V domains shown) VH: QVQLVQSGAEVKKPGASVKVSCKASGYIFTGYYMHWVRQAPGQGLEWMGWINPNSGGANYAQKFQGRVTLTRDTSITTVYMELSRLRFDDTAVYYCARGSRYDWNQNNWFDPWGQGTLVTVSS VL: QSALTQPASVSGSPGQSITISCTGTSSDVGTYNYVSWYQQHPGKAPKLMIFDVSNRPSGVSDRFSGSKSGNTASLTISGLQAEDEADYYCSSFTTSSTVVFGGGTKLTVL	binds

— publication doi:10.1101/2021.03.10.434834 (bioRxiv, 2021)
